In patent publication US20230279085A1 (ABL BIO, published 2023) one finds koff and kon data, which are given here for two molecules.

The target of one experiment is alpha-synuclein monomer (Homo sapiens, UniProt P37840 1-140). In words: SPR (BIAcore), antibody captured on Protein A, sample alpha-Syn monomer, 1:1 binding fit printed under a sensorgram that shows no binding (see non_binding). The procedure: The quantitative analysis of the binding of alpha-synuclein antibody prepared in Example 1 to monomer and aggregate antigens was performed using BIAcore analysis.
(§1) The used instrument was T200 (GE Healthcare, S/N: 1565888). Protein A is used as a chip (GE Healthcare, Cat. 29-1275-56). 10 mM Glycine-HCl pH 1.5 (GE Healthcare, Cat. BR-1003-54) was regeneration buffer. The running buffer, analyte dilution, and the sample dilution buffer were HBS-EP. The α-syn antibodies (3A9, 9B11 and 11F11) prepared in Example 1 were diluted with 1×HBS-EP (GE Healthcare, Cat. BR-1006-69), and alpha-synuclein monomer (1 mg/ml) and fibril protein (3 mg/ml) were serially diluted in duplicate and analyzed at 6 concentrations (0, 0.39, 1.56, 6.25, 25, 100 nM) including 0 nM in total. For the capture, the monomer was for RU of 800 (theoretical), and a fibril was for RU of 100 (theoretical). The capture phase was performed at contact time of 60 seconds, a flow rate of 30 μl/min, and a stabilization period of 180 seconds. The association phase was performed at the association time of 120 seconds and the flow rate was 30 μl/min. The dissociation phase was performed at the dissociation time of 360 seconds and the flow rate of 30 μl/min. The regeneration phase was performed twice time at the regeneration time of 240 seconds (primary) and 60 seconds (secondary) and a flow rate of 30 μl/min. […]

The target of experiment [1] is alpha-synuclein aggregate (fibril) (Homo sapiens, UniProt P37840 1-140). The experiment is described as follows: SPR (BIAcore), Protein A capture, file ProteinA-Fibril-main-5th, sample aSyn180330, 1:1 binding fit, 25 °C. The procedure:
as §1, with “μl/min.” for “μl/min. The regeneration phase was performed twice time at the regeneration time of 240 seconds (primary) and 60 seconds (secondary) and a flow rate of 30 μl/min.”
The BIAcore analysis was performed to quantitatively analyze the binding affinity of the chimeric antibodies (Ch11F11) obtained in Example 8, and the humanized antibodies (Hu11F11) obtained in Example 9, according to the substantially same method of Example 2-3. […]
In general terms: In SPR one partner is held on a chip, and binding of the other changes the refractive index at the surface.

Residue numbers refer to the chain shown, from its start.

Broadly, the koff is the first-order rate constant of dissociation. A higher koff goes with fast dissociation. As a reminder, the kon is a measure of how fast the partners come together.

B1: Ch11F11 chimeric antibody (antibody, human IgG1, V domains shown)
VH: EVQLQESGGGLVQPGGSLRLSCATSGFTFSDFYMEWVRQPPGKRLEWIAASRNKANDYTTEYSASVKGRFIVSRDTSQSILYLQMNALRAEDTAIYYCARDAHGKPFAYWGQGTLVTVSA
VL: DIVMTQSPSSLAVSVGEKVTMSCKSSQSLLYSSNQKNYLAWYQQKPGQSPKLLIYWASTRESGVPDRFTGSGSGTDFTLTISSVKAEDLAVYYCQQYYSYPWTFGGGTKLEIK
notes: Chimeric human IgG1; also called chimeric 11F11; Ch11F11(-RD)
In the experiment with alpha-synuclein monomer, B1 showed a koff of 2.65e-06 s⁻¹ and a kon of 2.07e+06 M⁻¹ s⁻¹.

B2: hu11F11(ver.3) (antibody, IgG1, V domains shown)
VH: B1 VH with Q5V, I71T, V72I, Q78K, I80S, A87S, L115T, A120S
VL: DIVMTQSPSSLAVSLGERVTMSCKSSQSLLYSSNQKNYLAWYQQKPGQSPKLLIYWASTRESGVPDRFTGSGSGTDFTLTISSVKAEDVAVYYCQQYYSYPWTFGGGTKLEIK
notes: Humanized IgG1; also called Hu11F1_ver3; Hu11F11_v3
For the molecule B2, the koff in experiment [1] amounted to 0.000266 s⁻¹.
